{
  "source": "paper doi:10.1101/2024.04.26.591406",
  "target": "Vibrio His-FliFG fusion protein (FliF-FliG fusion) with the FliG-G214S mutation (Vibrio alginolyticus)",
  "test": "cryo-EM structure",
  "note": "Several values for one entry are separate records, joined by “and”; a condition that tells them apart may be missing. Equal entries are not always repeated.",
  "data": [
    {"substance": "Vibrio His-FliFG fusion protein (FliF-FliG fusion) with the FliG-G214S mutation", "values": [
      {"measurement": "stoichiometry N", "result": "35 subunits and 34 subunits"}
    ]}
  ]
}
